Laboratory results reported in paper PMC7318607.

Target: GST-OGG1 wt (UniProt O15527 1-345)
Experiment: EMSA

Chain of GST-OGG1 wt (O15527 whole entry): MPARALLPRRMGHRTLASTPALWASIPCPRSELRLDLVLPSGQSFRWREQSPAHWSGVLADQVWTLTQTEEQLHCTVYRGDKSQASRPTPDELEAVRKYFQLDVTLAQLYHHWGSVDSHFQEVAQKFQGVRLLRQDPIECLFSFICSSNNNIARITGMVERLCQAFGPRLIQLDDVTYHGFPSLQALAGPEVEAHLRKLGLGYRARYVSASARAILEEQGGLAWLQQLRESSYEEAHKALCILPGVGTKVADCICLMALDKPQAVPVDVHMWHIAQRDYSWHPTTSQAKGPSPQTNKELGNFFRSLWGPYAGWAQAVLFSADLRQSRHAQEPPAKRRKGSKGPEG

B1: G2 probe (8-oxoG) (dsDNA)
DNA 1: CGATGTCTGGAAAAGCCCGGGGACCAGGGAA
DNA 2: TTCCCTGGTCCCCGGGCTTTTCCAGACATCG
modifications: 8-oxoG at position 27 of strand 1 (antisense)
binding result: binds

B2: Cy5 probe (8-oxoG) (dsDNA)
DNA 1: AGAGAAGAAGAAGAAGAGATGGGTTATTCGAACTAGC
DNA 2: GCTAGTTCGAATAACCCATCTCTTCTTCTTCTTCTCT
modifications: 8-oxoG at position 16 of strand 1
binding result: binds
